Assay [1] has as its target HIS-tagged integrin αvβ5 (ACRO Biosystems IT5-H52W5) (UniProt P06756). Kind of assay: radioligand binding; 125I-labeled NP-011 (0–100 μg/mL) incubated in plates coated with HIS-tagged integrin; 50 mM Tris, 5 mM MgCl2, 100 mM NaCl, 1% BSA, pH 7.4; Kd by nonlinear curve fitting (Prism); done by Gifford Bioscience.
Assay [2] concerns the target HIS-tagged integrin αvβ3 (ACRO Biosystems IT3-H52E3) (UniProt P06756). Described as above.
Assay [3] deals with HIS-tagged integrin αvβ5 (ACRO Biosystems IT5-H52W5) (UniProt P06756). Put plainly: radioligand binding; binding affinity assay of MFG-E8 to integrin αVβ5 (Supplementary Figure S2); told with the radioligand binding assays, its own methods not shown.

The term Kd denotes the concentration at which binding is half-saturated. Take “NP-011 (truncated form of MFG-E8, EGF + C1 domain) (from UniProt Q08431 24-387) (domain or fragment)”: the figures for the Kd in assay [1] and in assay [2] were 2 nM and 50.4 nM, respectively.

B1: Milk fat globule-EGF factor 8 (MFG-E8) (natural protein)
chain: LDICSKNPCHNGGLCEEISQEVRGDVFPSYTCTCLKGYAGNHCETKCVEPLGLENGNIANSQIAASSVRVTFLGLQHWVPELARLNRAGMVNAWTPSSNDDNPWIQVNLLRRMWVTGVVTQGASRLASHEYLKAFKVAYSLNGHEFDFIHDVNKKHKEFVGNWNKNAVHVNLFETPVEAQYVRLYPTSCHTACTLRFELLGCELNGCANPLGLKNNSIPDKQITASSSYKTWGLHLFSWNPSYARLDKQGNFNAWVAGSYGNDQWLQVDLGSSKEVTGIITQGARNFGSVQFVASYKVAYSNDSANWTEYQDPRTGSSKIFPGNWDNHSHKKNLFETPILARYVRILPVAWHNRIALRLELLGC
For the molecule B1, the Kd in assay [3] amounted to 25.4 nM.

Source of the values: article PMC8615163.
